These results are taken from patent US9505841B2, “Use of an anti-Ang2 antibody” (Samsung Electronics Co., Ltd., priority 2013, dated 2016).

Type in all cases: cell-based, human
The test system of one test is HUVEC monolayer. The test can be described thus: In vitro vascular permeability assay (FITC-dextran). Conditions: 200 ng/ml Ang1 alone or 200 ng/ml Ang2 + 1 ug/ml 10D6. As for the experimental part:
To see the cell permeability suppression effects of antibody 10D6, in vitro vascular permeability assay kit (Millipore) was employed. HUVEC (ATCC) cells (5×10^4) were added to a collagen-coated transwell and cultured for 2 days to prepare a confluent monolayer. It was treated with 200 ng/ml of Ang2 or 200 ng/ml of Ang1 (R&D systems) alone, or 200 ng/ml of Ang2 and 1 ug/ml of antibody 10D6, pre-incubated for 30 min. and then, treated with 100 ng/ml of LPS (Lipopolysaccharide; Sigma) or 100 ng/ml TNF-a (R&D systems) to induce the permeability of HUVEC monolayer. LPS or TNF-a weakens binding between HUVEC cells to form a gap therebetween, thereby increasing the migration of materials in the HUVEC monolayer. After 6-hour incubation for the LPS treatment group and 22-hour incubation for the TNF-a group, the upper chamber was treated with FITC-dextran (Millipore) and incubated for 18 min. The fluorescence of FITC-dextran migrated to the lower chamber was measured at 485/535 nm (Ex/Em) setting using an Envision 2104 multilabel Reader (Perkinelmer).

For another test, the system named is ICAM-1. Description: LPS-induced mRNA expression of ICAM-1 in HUVEC (qPCR). Conditions: 100 ng/ml LPS 5 hours, 0.2 ug/ml Ang1 or 0.1 ug/ml Ang2 + 0.5 ug/ml antibody. As for the experimental part: (§1) To see anti-inflammatory effects by antibody 10D6, HUVEC (ATCC) cells (4×10^5) were treated with Ang2 alone or Ang2 together with antibody 10D6, and a group in which Ang1 and Ang2 (R&D systems) and Regeneron Co. antibody (RG antibody) were co-treated was included as a control group. HUVEC cells were treated with 0.2 ug/ml of Ang1, 0.1 ug/ml of Ang2, or 0.1 ug/ml of Ang2 and 0.5 ug/ml of antibody, respectively and after 30-min. pre-incubation, they were treated with 100 ng/ml of LPS (Sigma) to induce inflammatory response and incubated for 5 hours.
(§2) The degree of the inflammatory response was identified by measuring the mRNA expression degree of an inflammatory adhesion substance (ICAM-1, E-selectin). The cells were washed using PBS, RNA was extracted using RNeasy Mini kit (Qiagen), and among them, 2 ug of RNA was synthesized into cDNA using Transcriptor First Strand cDNA synthesis kit (Roche). qPCR reaction was performed using RT2 SYBR™ Green Mastermix (Qiagen) and LightCycler™ 480 Real-Time PCR System (Roche). As an internal control for calibrating the amount of RNA in a sample, HPRT1 was used, and qPCR complied with the following procedures with regard to all the primers.
(§3) Step 1: 95° C., 10 min; Step 2 (45 cycles): Step 2-1: 95° C., 15 sec; Step 2-2: 60° C., 1 min; Step 3: 65° C., 15 sec; Step 4: 95° C., continuous (every 20° C.); Step 6: 40° C., 10 sec.
(Real-time PCR tracks product formation cycle by cycle.)

The test system of the next test is Akt, eNOS and 42/44. The test can be described thus: Phosphorylation of Tie2 downstream signaling proteins in HUVEC (immunoblot). The settings on record: 60 nM 10D6 + 40 nM Ang2, or Ang1 4 nM alone, 30 min. The protocol: To see whether antibody 10D6 induces the activation of the downstream signaling of a Tie2 receptor as well as the activation of the Tie2 receptor itself, the phosphorylation degrees of proteins participating in the downstream signaling when Ang2 alone or Ang2 and antibody 10D6 was treated were tested using immune blotting.
Specifically, HUVEC (ATCC) cells (1×10^6) were cultured in a 6-well culture dish using EGM-2 (Lonza) media at 37° C. and when they reached 80˜90% confluency, the media were replaced with serum-free media (Lonza) and cultured at 37° C. for 6 to 16 hours. The dish was washed once with PBS, and the cultured cells were treated with a mixture prepared by mixing 60 nM of the Ang2 antibody (10D6) with 40 nM of Ang2 protein (R&D systems) and letting them stand for 20 min. and further cultured for 30 min. For comparison, groups in which Ang1 (R&D systems) 4 nM, Ang2 (R&D systems) 40 nM, and Ang2 (R&D systems) 40 nM+anti-Ang2 antibody (Regeneron) 60 nM were treated respectively were prepared.
The cells were washed using PBS, treated with a lysis buffer (Roche), collected to a tube to be dissolved at 4° C. for 30 min. and then, centrifuged at 13,000 rpm for 15 min. to measure a supernatant. A sample buffer (Invitrogen) mixed with a reducing agent was added to 25 ug of a cell lysate, which was boiled at 95° C. for 5 min., and then, applied to NuPAGE Novex 4-12% Bis-Tris gel (Invitrogen) and transferred onto Nitrocellulose membrane (Invitrogen).
To see the presence of the phosphorylation of Akt, eNOS and 42/44 involved in the downstream signaling, the blots were blocked with PBST mixed with 3% (v/v) skim milk (Sigma) for 30 min. and then treated with an anti pAkt antibody, anti p-eNOS antibody, and anti p-42/44 antibody (all of them; cell signaling). The blots were reacted in a stripping buffer (Thermo) for 15 min. and then blocked again to identify Akt, eNOS, and 42/44 using an anti Akt antibody, anti eNOS antibody, and anti 42/44 antibody (all of them; cell signaling).
For orientation: A western blot detects proteins with antibodies after separation by electrophoresis.

The test system of test [1] is HL-60 cells adhered to HUVEC cells. The test can be described thus: Binding between inflammatory cells HL-60 and HUVEC induced by TNF-a. The settings on record: 1 ng/ml TNF-a; 0.2 ug/ml Ang1 or 0.1 ug/ml Ang2 + 0.5 ug/ml 10D6. As for the experimental part: Meanwhile, if the expression of inflammatory adhesion substances (ICAM-1, E-selectin, etc.) of vascular endothelial cells is increased, binding between the inflammatory cells and the vascular endothelial cells are accelerated and inflammatory response is thus induced. To confirm this, an experiment for measuring binding between inflammatory cells HL-60 (ATCC) and HUVEC was conducted.
HUVEC cells (4×10^5) were cultured in a 24-mutiwell plate and treated with 0.1 ug/ml of Ang2 alone or 0.1 ug/ml of Ang2 together with 0.5 ug/ml of antibody 10D6, and a group in which 0.2 ug/ml of Ang1, and 0.1 ug/ml of Ang2 (R&D systems) and 0.5 ug/ml of Regeneron Co. antibody (RG antibody) were co-treated was included as a control group. As above, the HUVEC cells were treated with Angiopoietin and antibody and after 30-min. pre-incubation, they were treated with 1 ng/ml of TNF-a (eBioscience) to induce inflammatory response and incubated for 2 hours and 30 min.
After the HUVEC cells were washed with complete media (Lonza), HL-60 cells dyed with Calcein-AM (BD bioscience) solution were added at the amount of 2.5×10^5 cells to each well and incubated for 1 hour. […] The obtained lysate was transported to a 96-well plate, and fluorescence strengths derived from the HL-60 cells were measured at 485/535 nm (Ex/Em) setting using an Envision 2104 multilabel Reader (Perkin Elmer).

The next test deals with E-selectin. The test can be described thus: LPS-induced mRNA expression of E-selectin in HUVEC (qPCR). Conditions: 100 ng/ml LPS 5 hours, 0.2 ug/ml Ang1 or 0.1 ug/ml Ang2 + 0.5 ug/ml antibody. The protocol:
as §1, §2, §3

B1: Ang1: Angiopoietin-1 protein (R&D systems), ligand which activates the Tie2 receptor (protein, UniProt Q15389 16-498, looked up)
Angiopoietin-1: HIGCSNQRRSPENSGRRYNRIQHGQCAYTFILPEHDGNCRESTTDQYNTNALQRDAPHVEPDFSSQKLQHLEHVMENYTQWLQKLENYIVENMKSEMAQIQQNAVQNHTATMLEIGTSLLSQTAEQTRKLTDVETQVLNQTSRLEIQLLENSLSTYKLEKQLLQQTNEILKIHEKNSLLEHKILEMEGKHKEELDTLKEEKENLQGLVTRQTYIIQELEKQLNRATTNNSVLQKQQLELMDTVHNLVNLCTKEGVLLKGGKREEEKPFRDCADVYQAGFNKSGIYTIYINNMPEPKKVFCNMDVNGGGWTVIQHREDGSLDFQRGWKEYKMGFGNPSGEYWLGNEFIFAITSQRQYMLRIELMDWEGNRAYSQYDRFHIGNEKQNYRLYLKGHTGTAGKQSSLILHGADFSTKDADNDNCMCKCALMLTGGWWFDACGPSNLNGMFYTAGQNHGKLNGIKWHYFKGPSYSLRSTTMMIRPLDF
As for B1, the “vascular permeability increased by LPS” value in the test on HUVEC monolayer (100 ng/ml LPS, 6 hour) is recorded as “decreased to the control level”. The “vascular permeability increased by TNF-a” value in the test with HUVEC monolayer (100 ng/ml TNF-a, 22 hour) is recorded as “decreased to the control level”. In addition, the “expression of ICAM-1 induced by LPS” value with ICAM-1 was “remarkably suppressed”. The “downstream signaling (phosphorylation of Akt, eNOS, 42/44) compared to Ang2 sole-treatment and Ang2 + RG antibody” value in the test with Akt, eNOS and 42/44 is recorded as “strongly induced”. In addition, in test [1], the “binding between HUVEC cells and HL-60 cells induced by TNF-a” value is “remarkably suppressed”. In addition, the “expression of E-selectin induced by LPS” value in the test with E-selectin is given as “remarkably suppressed”.
